From patent US20180265560A1 (CASE WESTERN RESERVE UNIVERSITY, published 2018)
Bridges are numbered along the chain shown (N, C = ends). Where no end group is shown, it is not given here.

Columns and labels:
[1] = target: T1, Type 1 IGF-I receptor (UniProt P08069 31-1367, limits assumed); assay: competitive receptor-binding assay, against wild-type human insulin as reference
T1 construct: also called IGF-1R; Type 1 insulin-like growth factor receptor

[2] = target: T2, A isoform of the insulin receptor (UniProt P06213-2 28-1370, limits assumed); assay: competitive displacement of radiolabelled tracer, receptor on microtiter plates coated with AU5 IgG
T2 construct: isoform A lacks exon 11; also called IR-A
Procedure: The assay employed the A isoform of the insulin receptor. […] The protocol for assay of receptor-binding activities was as follows. Microtiter strip plates (Nunc Maxisorb) were incubated overnight at 4° C. with AU5 IgG (100 μl/well of 40 mg/ml in phosphate-buffered saline). Binding data were analyzed by a two-site sequential model.

fold lower affinity than wild-type human insulin [1] | Kd [2] | Binder
5 fold | 0.06 nM | SCI-57DP (ligand, disulfide 19-56, 42-47, 7-43, Made in Pichia pastoris; the cleaved product has 57 residues with native disulfide bridges; also called SCI-2; Thermalin-biphasic) FVNQHLCGSHLVEALYLVCGERGFFYTDPTEEGPRRGIVEQCCHSICSLEQLENYCN
 | 0.08 nM | SCI-57PE (ligand, disulfide 19-56, 42-47, 7-43, Made in Pichia pastoris; the cleaved product has 57 residues with native disulfide bridges; also called SCI-1; Thermalin-biphasic) FVNQHLCGSHLVEALYLVCGERGFFYTPETEEGPRRGIVEQCCHSICSLEQLENYCN
